According to US20250270343A1 (Alector, published 2025):
Positions count from the first letter of the chain named.

B1: anti-GPNMB antibody GPN-83 (antibody, V domains shown)
VH: QVQLQESGPGLVKPSETLSLTCTVSGISITTGNYRWSWIRQPPGKGLEWIGYIDYSGTITYNPSLKSRVTITRDTSKNQFSLELSSVTAADTAVYYCARDLTHWYFDVWGQGTLVTVSS
VL: DIVMTQSPDSLAVSLGERATINCKSSRSVDYYGIGFVNWYQQKPGQPPKLLIYATSIQGSGVPDRFSGSGSGTDFTLTISSLQAEDVAVYYCQQQKEVPPTFGGGTKVEIK
B2: anti-GPNMB antibody GPN-86 (antibody, V domains shown)
VH: B1 VH
VL: B1 VL with V37L, I57K
B3: anti-GPNMB antibody GPN-85 (antibody, V domains shown)
VH: B1 VH with S67Q
VL: B1 VL with Y32F, V37L, I57H
B4: anti-GPNMB antibody GPN-87 (antibody, V domains shown)
VH: B1 VH with F106Y
VL: B1 VL with V37L, I57K
B5: anti-GPNMB antibody GPN-90 (antibody, V domains shown)
VH: B1 VH with S67Q
VL: B1 VL with V37L, I57H
B6: anti-GPNMB antibody GPN-89 (antibody, V domains shown)
VH: B1 VH with F106Y
VL: B1 VL with V37L, I57H
B7: anti-GPNMB antibody GPN-91 (antibody, V domains shown)
VH: B1 VH
VL: B1 VL with V37L, I57H, V98R
B8: anti-GPNMB antibody GPN-84 (antibody, V domains shown)
VH: B1 VH with F106Y
VL: B1 VL
B9: anti-GPNMB antibody GPN-88 (antibody, V domains shown)
VH: B1 VH
VL: B1 VL with V37L, I57H, E97H
B10: anti-GPNMB antibody GPN-65 (antibody, human IgG1, V domains shown)
VH: QLQLQQSGTEVVKPGASVKIPCKASGYAFSSYWMNWVKQRPGKGLEWIGQIYPGDGDTNDNGKFEGKATLTVDKSSNTAYIQLSSLTSEDSAVYFCARSPLHLRGSMDYWGQGTSVTVSS
VL: SIVMTQTPKFLLVSAGDRVTITCKASQSVSNDVAWFQQKPGQSPELLIYSASNRYTGVPDRFTGSGYGTDFTFTISTVQAEDLAVYFCQQNYYSPFTFGGGTRLEIK
notes: chimeric
B11: anti-GPNMB antibody GPN-52 (antibody, human IgG1, V domains shown)
VH: DVQLQESGPGLVKPSQTVFLTCTVTGISITTGNYRWSWIRQFPGNKLEWIGYIYYSGTITYNPSLTSRITITRDTPKNEFFLEMNSLTAEDTATYYCARDLTHWYFDVWGTGTTVTVSS
VL: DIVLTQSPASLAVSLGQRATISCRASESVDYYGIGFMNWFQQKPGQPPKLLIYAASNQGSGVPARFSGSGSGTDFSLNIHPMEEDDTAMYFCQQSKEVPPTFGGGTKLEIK
notes: chimeric
B12: anti-GPNMB antibody GPN-61 (antibody, human IgG1, V domains shown)
VH: B11 VH with I69T, E79Q, N85S, Y96F, T102R
VL: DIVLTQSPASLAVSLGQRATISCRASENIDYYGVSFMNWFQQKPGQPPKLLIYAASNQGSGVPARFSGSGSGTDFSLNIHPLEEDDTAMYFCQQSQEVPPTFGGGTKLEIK
notes: chimeric
B13: anti-GPNMB antibody GPN-37 (antibody, human IgG1, V domains shown)
VH: EVQLVESGGGLVQPGRSLKLSCAASGFTFSSKSGMAWVRQAPTKGLEWVASISNGGGDTYYRDSVKGRFTISRDNAKNTQYLQMDSLRPEDTATYYCARHRDYGYDAYFDYWGQGVMVTVSS
VL: DIQMTQSPASLSASLGETVTIECLASEDIYSSLAWYQQKPGKSPQLLIYDASSLQDGVPSRFSGSESGTQYSLEINSLQSEDAATYFCQQHHDYPYTFGAGTKLELK
notes: chimeric
B14: anti-GPNMB antibody GPN-43 (antibody, human IgG1, V domains shown)
VH: EVQLQQSGPELVKPGASVKISCKASGYTFTDYYMNWVRQSHGKSLEWIGDINPYHGGSTYNQKIKVKATLTVDKSSSTAYMELRSLTSEDSAVYYCARNWPYFDYWGQGTTLTVSS
VL: DIQMTQSPASLSASVGETVTITCRASENIYSFLVWYQQKQGKSPQLLVYNAKTLAEGVPSRFSGSGSGTQFSLKISSLQPEDFGSYYCQHHFGTPPYTFGGGTKLEIK
notes: chimeric
B15: anti-GPNMB antibody GPN-48 (antibody, human IgG1, V domains shown)
VH: QVQLQQSGPELVKPGASVKLSCRASGYGFSSFWMNWVKQRPGKGLEWIGRIYPGKGDTLYNGKFKDKATLTADESSSTAYMQLSSLTSEDSAVYFCARSIYYYDYWYFDVWDTGTTVTVSS
VL: DIVMTQSHKFMSTSVGDRVNITCKASQDVNSAIAWYQQKPGQSPKLLIYSASYRFIGVPDRFTGSGSGTGFTFTISSVQAEDLAVYYCQQHYTTPLTFGAGTKLELK
notes: chimeric
B16: anti-GPNMB antibody GPN-35 (antibody, human IgG1, V domains shown)
VH: EVQLVESGGGSVRPGRSLKLSCAAAGFTFSDYYMTWVRQAPTKGLEWVASINHDGGGTYYRDSVKGRFTISRDNARSSLYLQMDSLRSEDTGTYYCTTRAGWHWGQGVMVTVSS
VL: DIQMTQSPASLSASLGETVSIECLASEDIYNYLTWYQQKPGKSPQVLIYSASGLQDGVPSRFSGSGSGRQYSLKINGLESEDAATYFCLQDSEYPLTFGSGTKLEIK
notes: chimeric

The binders below were run against T1, full-length untagged human GPNMB expressed on cells (human, UniProt Q14956 23-572) (assay: cell-based or functional assay).
T1 sequence: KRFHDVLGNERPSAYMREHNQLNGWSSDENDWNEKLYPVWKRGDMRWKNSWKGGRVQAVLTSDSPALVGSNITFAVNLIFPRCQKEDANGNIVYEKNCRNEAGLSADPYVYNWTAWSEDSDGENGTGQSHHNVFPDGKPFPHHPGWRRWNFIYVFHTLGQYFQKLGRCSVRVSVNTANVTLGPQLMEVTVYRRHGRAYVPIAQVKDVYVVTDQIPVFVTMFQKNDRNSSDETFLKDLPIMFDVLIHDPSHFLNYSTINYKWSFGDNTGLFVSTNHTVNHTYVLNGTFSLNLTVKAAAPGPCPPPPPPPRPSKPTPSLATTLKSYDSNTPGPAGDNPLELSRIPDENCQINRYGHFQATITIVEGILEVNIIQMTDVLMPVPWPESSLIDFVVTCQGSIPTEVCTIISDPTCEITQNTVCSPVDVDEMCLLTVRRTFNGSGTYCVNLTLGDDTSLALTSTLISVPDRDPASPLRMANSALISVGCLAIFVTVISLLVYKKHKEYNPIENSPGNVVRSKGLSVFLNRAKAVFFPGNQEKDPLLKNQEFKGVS
In the case of B1, the “Inflammasome: Fold Decrease IL-1β (max response at 0.3 µg/ml)” value (shortened to “Inflammasome: Fold Decrease IL-1β”) is reported as 0.472 fold.
In the case of B2, the “Inflammasome: Fold Decrease IL-1β” value is reported as 0.404 fold.
With B3 the “Inflammasome: Fold Decrease IL-1β” value was 0.601 fold.
With B4 the “Inflammasome: Fold Decrease IL-1β” value was 0.428 fold.
In the case of B5, the “Inflammasome: Fold Decrease IL-1β” value is reported as 0.564 fold.
For B6, the “Inflammasome: Fold Decrease IL-1β” value was 0.501 fold.

Target: T2, soluble cynomolgus GPNMB (recombinant extracellular domain) (cynomolgus, UniProt Q14956 23-499 (human entry), limits assumed)
T2 chain: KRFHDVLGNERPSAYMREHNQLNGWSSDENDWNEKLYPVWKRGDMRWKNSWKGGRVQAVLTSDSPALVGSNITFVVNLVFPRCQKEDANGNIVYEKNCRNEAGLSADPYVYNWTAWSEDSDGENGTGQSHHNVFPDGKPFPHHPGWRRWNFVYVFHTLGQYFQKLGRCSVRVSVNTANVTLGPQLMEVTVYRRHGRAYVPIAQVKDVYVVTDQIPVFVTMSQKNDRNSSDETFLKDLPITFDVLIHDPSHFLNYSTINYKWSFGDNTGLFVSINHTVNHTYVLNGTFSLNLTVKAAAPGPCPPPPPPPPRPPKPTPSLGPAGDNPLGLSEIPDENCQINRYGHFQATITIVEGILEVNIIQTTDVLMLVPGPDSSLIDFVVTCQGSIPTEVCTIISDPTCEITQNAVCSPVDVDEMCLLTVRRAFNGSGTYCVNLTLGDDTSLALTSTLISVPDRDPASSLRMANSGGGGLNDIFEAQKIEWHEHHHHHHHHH
Test: SPR Biacore, IgG captured
Binder B1 has a Kd of 8.1 nM, a koff of 0.0014 s⁻¹ and a kon of 170000 M⁻¹ s⁻¹.
B2 gave a Kd of 5.5 nM, a koff of 0.0011 s⁻¹ and a kon of 190000 M⁻¹ s⁻¹.
B3 gave a Kd of 1.4 nM, a koff of 0.00021 s⁻¹ and a kon of 150000 M⁻¹ s⁻¹.
With B7 the Kd was 3.6 nM, the koff was 0.00052 s⁻¹ and the kon was 150000 M⁻¹ s⁻¹.
B8 gave a Kd of 10.3 nM, a koff of 0.0019 s⁻¹ and a kon of 180000 M⁻¹ s⁻¹.
B4 gave a Kd of 6.2 nM, a koff of 0.0012 s⁻¹ and a kon of 190000 M⁻¹ s⁻¹.
For B9, the Kd was 3.7 nM, the koff was 0.00061 s⁻¹ and the kon was 160000 M⁻¹ s⁻¹.
Binder B5 has a Kd of 3.2 nM, a koff of 0.00051 s⁻¹ and a kon of 160000 M⁻¹ s⁻¹.
B6 was tested, and the Kd was 3.3 nM, the koff was 0.00055 s⁻¹ and the kon was 170000 M⁻¹ s⁻¹.

These binders were tested against T3, soluble mouse GPNMB (recombinant extracellular domain) (mouse, UniProt Q99P91 23-502) (assay: SPR Biacore, IgG captured).
T3 construct: also called moGPNMB; not shown: C-terminal polyhistidine or Avi-His tag
T3 sequence: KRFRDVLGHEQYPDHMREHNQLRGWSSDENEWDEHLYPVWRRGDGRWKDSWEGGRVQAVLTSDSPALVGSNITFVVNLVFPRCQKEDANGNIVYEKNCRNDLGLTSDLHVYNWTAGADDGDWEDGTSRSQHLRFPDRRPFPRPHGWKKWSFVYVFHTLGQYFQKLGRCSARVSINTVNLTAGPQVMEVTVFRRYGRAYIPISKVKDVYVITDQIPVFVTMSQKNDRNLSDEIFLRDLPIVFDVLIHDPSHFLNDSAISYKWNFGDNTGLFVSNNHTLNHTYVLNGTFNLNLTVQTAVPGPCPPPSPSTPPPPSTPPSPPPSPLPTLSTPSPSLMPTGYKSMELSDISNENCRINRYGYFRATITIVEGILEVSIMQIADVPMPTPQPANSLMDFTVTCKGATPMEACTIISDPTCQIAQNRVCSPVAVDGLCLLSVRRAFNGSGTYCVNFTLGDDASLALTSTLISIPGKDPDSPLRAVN
B1 was tested, and the Kd was 1.5 nM, the koff was 0.00024 s⁻¹ and the kon was 160000 M⁻¹ s⁻¹.
Work on B2 yielded a Kd of 1.2 nM, a koff of 0.00023 s⁻¹ and a kon of 190000 M⁻¹ s⁻¹.
B3 was tested, and the Kd was 0.5 nM, the koff was 7.4e-05 s⁻¹ and the kon was 140000 M⁻¹ s⁻¹.
B7 showed a Kd of 1.1 nM, a koff of 0.00014 s⁻¹ and a kon of 140000 M⁻¹ s⁻¹.
Binder B8 has a Kd of 2.1 nM, a koff of 0.00034 s⁻¹ and a kon of 160000 M⁻¹ s⁻¹.
With B4 the Kd was 1.5 nM, the koff was 0.00028 s⁻¹ and the kon was 190000 M⁻¹ s⁻¹.
For B9, the Kd was 1.1 nM, the koff was 0.00017 s⁻¹ and the kon was 150000 M⁻¹ s⁻¹.
Work on B5 yielded a Kd of 0.7 nM, a koff of 0.00011 s⁻¹ and a kon of 160000 M⁻¹ s⁻¹.
B6 showed a Kd of 0.8 nM, a koff of 0.00012 s⁻¹ and a kon of 160000 M⁻¹ s⁻¹.

Target: T1, full-length untagged human GPNMB …
Test: cell-based or functional assay
Remark: another data set of the same source
With B10 the “IC50 (read off the curve) of the loss of cell surface GPNMB (MFI), internalization assay on human macrophages” value was roughly 2 nM.
In the case of B11, the “IC50 (read off the curve) of the loss of cell surface GPNMB (MFI), internalization assay on human macrophages” value is reported as roughly 2 nM.
For B12, the “IC50 (read off the curve) of the loss of cell surface GPNMB (MFI), internalization assay on human macrophages” value was roughly 2 nM.
With B13 the “IC50 (read off the curve) of the loss of cell surface GPNMB (MFI), internalization assay on human macrophages” value was roughly 2 nM.

The binders below were run against T4, soluble mouse GPNMB-Fc polypeptide (mouse IgG2A Fc) (mouse, UniProt Q99P91 23-502) (assay: FACS, blocking of moGPNMB-Fc binding to SVEC4-10 cells).
T4 construct: extracellular domain; bought (R&D System); also called moGPNMB-Fc; mGPNMB-Fc; not shown: Fc region of mouse IgG2A
T4 sequence (looked up): T3 sequence
Description: Purified full-length anti-GPNMB antibodies of the present disclosure were evaluated for their ability to block binding of moGPNMB-Fc to SVEC4-10 cells to determine the ligand blocking potency of each anti-GPNMB monoclonal antibody. Briefly, 2 μg/mL moGPNMB-Fc (mouse IgG2A Fc) diluted in binding buffer was pre-complexed with increasing concentrations of anti-GPNMB antibody of the present disclosure or human IgG1 isotype control antibody in 96-well plates. Subsequently, 100,000 SVEC4-10 cells were added per well and incubated on ice for 30 minutes. Soluble moGPNMB-Fc bound to cell surface was detected with fluorescent anti-mouse IgG2A secondary antibody and measured on FACSCanto. (FIG. 5A and FIG. 5B) IC50 values (for antibodies that block moGPNMB-Fc cell binding) and EC50 values (for antibodies that enhance moGPNMB-Fc cell binding) based on changes in MFI values were calculated (average+standard error) for each anti-GPNMB antibody and listed in Table 6. In Table 6, NA indicates no activity. […] In all cases, certain anti-GPNMB antibodies of the present disclosure blocked soluble GPNMB binding to cells, while other anti-GPNMB antibodies of the present disclosure enhanced soluble GPNMB binding to cells.
In the case of B14, the IC50 is reported as 5.37 nM.
Binder B11 has an IC50 of 1 nM.
Work on B12 yielded an IC50 of 0.77 nM.
With B15 the IC50 was 1.2 nM.
B16 gave an IC50 of 1.17 nM.
